# B1: 8-mer m6A ssRNA (ssRNA)
# RNA: UGGACUGC
# modifications: N6-methyladenosine at position 4 (m6A)
# Biological target: ALKBH5 74-292 (human, UniProt Q6P6C2 74-292)
# Experiment: X-ray crystallography; Mn2+, sulfate in 2OG site (NOG added but not observed); 2.1 A, P32; GG(m6A)C ordered; Complex formation: 25 mM Tris pH 7.5, 400 uM protein, 333 uM RNA, 2 mM MnCl2, 2 or 10 mM NOG or 10 mM 2OG, on ice 30 min, then SEC in 25 mM Tris pH 7.5; mutant
# Conditions: protein: recombinant; tags: N-terminal His6, removed by TEV protease; single strand
# Chain of ALKBH5 74-292 (Q6P6C2 74-292): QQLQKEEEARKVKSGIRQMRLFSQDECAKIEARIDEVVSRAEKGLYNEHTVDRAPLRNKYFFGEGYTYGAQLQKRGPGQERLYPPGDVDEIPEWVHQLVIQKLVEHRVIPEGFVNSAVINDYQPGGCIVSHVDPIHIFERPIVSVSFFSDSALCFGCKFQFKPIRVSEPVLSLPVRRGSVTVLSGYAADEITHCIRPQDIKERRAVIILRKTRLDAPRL
binder,measurement,value
B1,binding result,binds

# — paper PMC9023255, “Mechanisms of substrate recognition and N6-methyladenosine demethylation revealed by crystal structures of ALKBH5–RNA complexes”
